In publication PMC3821024, “The enzyme carbonic anhydrase as an integral component of biogenic Ca-carbonate formation in sponge spicules^” (FEBS Open Bio, 2013):

Substrate: CC(=O)Oc1ccc([N+](=O)[O-])cc1
Test: colorimetric esterase assay, Lineweaver-Burk plot
Assay type: biochemical, Sycon raphanus
Conditions: 15 mM Tris/SO4 pH 7.4, 22 °C, 0.25-3 mM substrate, apparent Km

B1: recombinant carbonic anhydrase (CA) from S. raphanus (Sycon raphanus) (protein)
chain: ASWSYNYGAANGPNNWGMLPGFSTCGNGTKQTPIDIVRASATRQTYPTLSFSGATNETDWTIQNNGHSVAALPTADIWLSGGPLGSKVYKVYNIHIHFGNSSFRASEHSFDGGQRTTGEFHVVTYDRTFSNIGEAVASNRGDALSVFGVLFQAQTGQTYDAGITSLINMAANLTYAGDDYVDGLDFSTMVSALDLQQYYSYMGSLTTPGCAEVVSWIVANRLHYVSPAAIDQLMSLKAGMSATPGIDLQGNTRPLQALNGRTVSRSFDLSGS
notes: carbonic anhydrase domain, lacking signal peptide and transmembrane region; expressed in E. coli, Ni-NTA purified
Km: 6.2 ± 1.0 mM
